The assay has as its target cancer-testis antigen Ny-ESO-1 peptide on HLA-A*02:01 (human). Description: NFAT-luciferase, TCR-KO CD8+ Jurkat.

The source of these data is paper PMC8646365.

Take 1G4_a95LY TCR: the EC50 of peptide was 0.05 nM.
